Test results from PMC3058826 (Nature, 2010).
Residue numbers refer to the chain shown, from its start.

What was measured:
[1] = target: T1, TRIM24 PHD-Bromo (F979A/N980A) (Homo sapiens, UniProt O15164, F979A/N980A); experiment: ITC binding of histone peptides
T1 sequence (O15164 824-1006 F979A/N980A): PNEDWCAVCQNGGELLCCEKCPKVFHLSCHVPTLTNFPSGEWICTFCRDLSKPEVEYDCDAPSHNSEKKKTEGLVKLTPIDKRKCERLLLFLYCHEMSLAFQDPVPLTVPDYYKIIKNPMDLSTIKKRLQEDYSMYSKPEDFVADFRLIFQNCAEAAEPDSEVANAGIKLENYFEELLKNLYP

TRIM24 PHD-Bromo (WT) = target: T2, TRIM24 PHD-Bromo (WT) (Homo sapiens, UniProt O15164); experiment: ITC binding of histone peptides; conditions: PHD-Bromo (bromodomain binding)
T2 sequence (O15164 824-1006): T1 sequence (O15164 824-1006 F979A/N980A) with A156F, A157N

[2] = tested on: TRIM24, GREB1 distal ERE, MCF7 cells; experiment: ChIP of TRIM24 at GREB1 ERE's; type: cell-based; conditions: 10 nM estradiol, six hours
[3] = tested on: ERα, GREB1 distal ERE, MCF7 cells; experiment: ChIP of ERα at GREB1 ERE's; type: cell-based; conditions: 10 nM estradiol, six hours

H3(13-32)K23ac: H3(13–32) peptide bearing acetylated K23; ITC values are those of the -Bio form
binding affinity in words [1]: loses most of the binding affinity

H3(13-32)K27ac: H3(13–32) peptide, K27ac; ITC values are those of the -Bio form
binding affinity in words (TRIM24 PHD-Bromo (WT)): weak binding affinity

C[C@]12CC[C@@H]3c4ccc(O)cc4CC[C@H]3[C@@H]1CC[C@@H]2O [estradiol]
increase of TRIM24 binding [2]: 6 fold | increase of ERα binding [3]: 7 fold
